Experimental findings from patent US12570744 (AstraZeneca / MedImmune, dated 2026) are described below.

In test [1] the target is T1, human PD-1 expressed on the cell surface of engineered Jurkat cells (human, UniProt Q15116 25-288). The experiment in a line: cell-based or functional assay.
Test [2] deals with T1, human PD-1 expressed on the cell …. In words: flow cytometry on PD-1^+ Jurkat cells, Experiment #1. (In general: In flow cytometry, cells or beads pass a laser one at a time.)
Test [3] shares this target. The experiment in a line: flow cytometry on PD-1^+ Jurkat cells, Experiment #2.
Test [4] shares this target. In words: flow cytometry on PD-1^+ Jurkat cells (the reference itself).
The target is the same in test [5]. In words: flow cytometry on PD-1^+ Jurkat cells, mean of two experiments.
The target in test [6] is T2, human TIGIT expressed on the cell surface (human, UniProt Q495A1 22-244).
T2 sequence (looked up): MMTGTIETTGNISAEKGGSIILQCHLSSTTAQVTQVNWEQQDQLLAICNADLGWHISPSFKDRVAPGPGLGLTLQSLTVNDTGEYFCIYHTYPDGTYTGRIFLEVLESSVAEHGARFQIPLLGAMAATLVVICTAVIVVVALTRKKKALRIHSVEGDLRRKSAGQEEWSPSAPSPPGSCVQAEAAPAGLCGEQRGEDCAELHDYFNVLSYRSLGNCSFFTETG
The experiment in a line: cell-based or functional assay.

The target in test [7] is T2, human TIGIT expressed on the cell …. In words: flow cytometry on TIGIT^+ Jurkat cells, Experiment #1.
Test [8] has the same target. The experiment in a line: flow cytometry on TIGIT^+ Jurkat cells, Experiment #2.
For test [9] the target is unchanged. The experiment in a line: flow cytometry on TIGIT^+ Jurkat cells (the reference itself).
Test [10] has the same target. The experiment in a line: flow cytometry on TIGIT^+ Jurkat cells, mean of two experiments.
For test [11] the target is unchanged. The experiment in a line: flow cytometry (MFI) on 293 cells overexpressing human TIGIT.
The target is the same in test [12]. The experiment in a line: flow cytometry (MFI) on 293 cells overexpressing human TIGIT; Kd row of the table under the graph, the concentration axis is [nM].
The target of test [13] is T3, cynomolgus TIGIT overexpressed on 293 cells (cynomolgus, UniProt A0A7N9I9V4 89-312).
T3 construct: whole, on cells
In words: flow cytometry (MFI) on 293 cells overexpressing cynomolgus TIGIT; Kd row of the table under the graph, the concentration axis is [nM].

Test [14] addresses T4, cyTIGIT (cynomolgus TIGIT, recombinant) (cynomolgus, UniProt A0A7N9I9V4 89-209).
T4 construct: Ligand in the BIAcore assay; The construct is not described
The experiment in a line: SPR (BIAcore T200), PD-1/TIGIT DuetMab sample, cyTIGIT as ligand. As to the method:
(§1) Binding experiments were carried out using a BIAcore T200 instrument (BIAcore).
A general note: Surface plasmon resonance follows binding to a sensor surface in real time, without labels.

Test [15] concerns the target T5, recombinant human TIGIT protein (human, UniProt Q495A1 22-141).
T5 construct: In the Octet assay it was used biotinylated on streptavidin sensors or in solution; Construct and tags are not described; also called huTIGIT; human TIGIT antigen
T5 sequence (looked up): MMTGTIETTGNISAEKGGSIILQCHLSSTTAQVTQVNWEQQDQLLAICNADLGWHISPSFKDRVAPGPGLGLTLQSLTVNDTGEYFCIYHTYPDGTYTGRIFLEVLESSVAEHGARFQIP
The experiment in a line: SPR (BIAcore T200), PD-1/TIGIT DuetMab sample, huTIGIT as ligand. As to the method: as §1

For test [16], the target named is T6, muTIGIT (mouse TIGIT, recombinant) (mouse (printed as 'mu'), UniProt P86176 29-148, limits assumed).
T6 construct: Ligand in the BIAcore assay; The construct is not described
T6 sequence (looked up): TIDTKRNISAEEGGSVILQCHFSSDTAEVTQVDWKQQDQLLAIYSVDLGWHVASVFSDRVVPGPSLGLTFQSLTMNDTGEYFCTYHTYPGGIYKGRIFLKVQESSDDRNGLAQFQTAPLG
The experiment in a line: SPR (BIAcore T200), PD-1/TIGIT DuetMab sample, muTIGIT as ligand. Here is the method: as §1

T4 sequence (A0A7N9I9V4 entry or part of it): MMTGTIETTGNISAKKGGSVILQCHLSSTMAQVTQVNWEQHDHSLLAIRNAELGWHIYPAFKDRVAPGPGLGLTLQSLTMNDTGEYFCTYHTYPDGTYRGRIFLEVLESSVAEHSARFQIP
T1 sequence (Q15116 25-288, change not shown): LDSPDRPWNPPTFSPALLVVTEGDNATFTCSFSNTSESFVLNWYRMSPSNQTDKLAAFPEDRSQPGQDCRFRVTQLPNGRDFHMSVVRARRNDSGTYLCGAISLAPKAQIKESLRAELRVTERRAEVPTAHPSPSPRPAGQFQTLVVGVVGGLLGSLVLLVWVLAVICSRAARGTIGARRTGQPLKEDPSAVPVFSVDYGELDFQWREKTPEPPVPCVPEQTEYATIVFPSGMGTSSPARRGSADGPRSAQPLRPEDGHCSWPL
T3 sequence (A0A7N9I9V4 entry or part of it): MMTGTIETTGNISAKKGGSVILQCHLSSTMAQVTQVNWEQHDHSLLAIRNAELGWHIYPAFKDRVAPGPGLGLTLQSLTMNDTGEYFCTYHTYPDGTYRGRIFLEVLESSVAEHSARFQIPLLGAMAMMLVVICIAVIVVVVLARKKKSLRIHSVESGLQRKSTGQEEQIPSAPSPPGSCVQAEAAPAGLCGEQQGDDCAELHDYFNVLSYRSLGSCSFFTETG

B1: monospecific anti-PD1 (LO115) bivalent mAb (antibody, V domains shown)
VH: EVQLVESGGGLVQPGGSLRLSCAASGFTFSDYGMHWVRQAPGKGLEWVAYISSGSYTIYSADSVKGRFTISRDNAKNSLYLQMNSLRAEDTAVYYCARRAPNSFYEYYFDYWGQGTTVTVSS
VL: QIVLTQSPATLSLSPGERATLSCSASSKHTNLYWSRHMYWYQQKPGQAPRLLIYLTSNRATGIPARFSGSGSGTDFTLTISSLEPEDFAVYYCQQWSSNPFTFGQGTKLEIK
notes: Bivalent mAb; also called bivalent anti-PD-1 antibody; parental bivalent anti-PD-1 antibody
With B1, in test [1], the “EC50 (nM), NFAT-luciferase reporter, Experiment #1” value was determined as 1.93 nM; the “EC50 (nM), NFAT-luciferase reporter, Experiment #2” value was determined as 4.14 nM; the “Fold Change of Mean EC50 vs. Anti-PD-1” value turned out to be 1 fold; the “Mean EC50 (nM), NFAT-luciferase reporter” value amounted to 3.03 nM. In addition, the EC50 in test [2] is 0.349 nM. Besides, in test [3], a half-maximal response (EC50) required 0.985 nM. In [4], the “Fold Change vs. anti-PD-1 (mean EC50)” value worked out at 1 fold. This molecule also returned an EC50 in test [5] of 0.667 nM.

B2: monospecific anti-TIGIT (VAR1) bivalent mAb (antibody, V domains shown)
VH: QVQLVESGGGVVQPGRSLRLSCAASGFTFSSYAMHWVRQAPGKGLEWVAVISYAGEVKYYADSVKGRFTISRDNSKNTLYLQMNSLRAEDTAVYYCARDPLPLHYYGMDVWGQGTTVTVSS
VL: QSVLTQPPSASGTPGQRVTISCSGSSSNIGRRPVNWYQQLPGTAPKLLIYSQNQRPSGVPDRFSGSQSGTSASLAISGLQSEDEADYFCAVWDDIGRVLQLGGGTQLTVL
notes: Bivalent mAb; also called anti-TIGIT mAb; bivalent anti-TIGIT antibody
For the molecule B2, in test [6], the “EC50 (nM), NFAT-luciferase reporter, Experiment #1” value amounted to 1.59 nM; the “EC50 (nM), NFAT-luciferase reporter, Experiment #2” value was 2.85 nM; the “Fold Change of Mean EC50 vs. Anti-TIGIT” value stood at 1 fold; the “Mean EC50 (nM), NFAT-luciferase reporter” value turned out to be 2.22 nM. Besides, in [7], the EC50 was 0.092 nM. The EC50 in [8] is 0.147 nM. Moreover, the “Fold Change vs. anti-TIGIT (mean EC50)” value in test [9] worked out at 1 fold. Further, the EC50 in test [10] turned out to be 0.119 nM.

B3: VL GL + VH WT (VAR1 variant DuetMab) (bispecific antibody)
chain 1: EVQLVESGGGLVQPGGSLRLSCAASGFTFSDYGMHWVRQAPGKGLEWVAYISSGSYTIYSADSVKGRFTISRDNAKNSLYLQMNSLRAEDTAVYYCARRAPNSFYEYYFDYWGQGTTVTVSS
chain 2: QIVLTQSPATLSLSPGERATLSCSASSKHTNLYWSRHMYWYQQKPGQAPRLLIYLTSNRATGIPARFSGSGSGTDFTLTISSLEPEDFAVYYCQQWSSNPFTFGQGTKLEIK
chain 3: EVQLVETGGGLIQPGRSLRLSCAASGFTFSSYAMHWVRQAPGKGLEWVAVISYAGEVKYYADSVKGRFTISRDNSKNTLYLQMNSLRAEDTAVYYCARDPLPLHYYGMDVWGQGTTVTVSS
chain 4: QSVLTQPPSASGTPGQRVTISCSGSSSNMGRRPVNWYQQLPGTAPKLLIYSQNQRPSGVPDRFSGSQSGTSASLAISGLQSEDEADYFCAVWDDIGRVLQLGGGTQLTVL
As for B3, the “EC50 (read off the curve)” value in test [11] is ~4 nM. Further, the Kd was 4.43 nM in [12] and 23.6 nM in [13].

B4: VL WT + VH GL (VAR1 variant DuetMab) (bispecific antibody, V domains shown)
VH 1: EVQLVESGGGLVQPGGSLRLSCAASGFTFSDYGMHWVRQAPGKGLEWVAYISSGSYTIYSADSVKGRFTISRDNAKNSLYLQMNSLRAEDTAVYYCARRAPNSFYEYYFDYWGQGTTVTVSS
VL 1: QIVLTQSPATLSLSPGERATLSCSASSKHTNLYWSRHMYWYQQKPGQAPRLLIYLTSNRATGIPARFSGSGSGTDFTLTISSLEPEDFAVYYCQQWSSNPFTFGQGTKLEIK
VH 2: QVQLVESGGGVVQPGRSLRLSCAASGFTFSSYAMHWVRQAPGKGLEWVAVISYAGEVKYYADSVKGRFTISRDNSKNTLYLQMNSLRAEDTAVYYCARDPLPLHYYGMDVWGQGTTVTVSS
VL 2: QSALTQPRSASGNPGQRVTISCSGSSSNMGRRPVNWYQQIPGTAPKLLIYSQNQRPSGVPDRFSGSQSGTSASLTISGLQSEDEAEYFCAVWDDIGRVLQLGGGTQLAVL
As for B4, the figures for the Kd in [12] and in test [13] were 3.09 nM and 10.8 nM, respectively.

B5: VL GL + VH GL (VAR1 variant DuetMab) (bispecific antibody)
chain 1: EVQLVESGGGLVQPGGSLRLSCAASGFTFSDYGMHWVRQAPGKGLEWVAYISSGSYTIYSADSVKGRFTISRDNAKNSLYLQMNSLRAEDTAVYYCARRAPNSFYEYYFDYWGQGTTVTVSS
chain 2: QIVLTQSPATLSLSPGERATLSCSASSKHTNLYWSRHMYWYQQKPGQAPRLLIYLTSNRATGIPARFSGSGSGTDFTLTISSLEPEDFAVYYCQQWSSNPFTFGQGTKLEIK
chain 3: QVQLVESGGGVVQPGRSLRLSCAASGFTFSSYAMHWVRQAPGKGLEWVAVISYAGEVKYYADSVKGRFTISRDNSKNTLYLQMNSLRAEDTAVYYCARDPLPLHYYGMDVWGQGTTVTVSS
chain 4: QSVLTQPPSASGTPGQRVTISCSGSSSNMGRRPVNWYQQLPGTAPKLLIYSQNQRPSGVPDRFSGSQSGTSASLAISGLQSEDEADYFCAVWDDIGRVLQLGGGTQLTVL
For the molecule B5, the Kd in test [12] worked out at 3.28 nM; in test [13], 14.7 nM.

B6: PD1-TIGIT duetMab LO115/P-VAR1(VHWT-VLWT) (bispecific antibody, V domains shown)
VH 1: EVQLVESGGGLVQPGGSLRLSCAASGFTFSDYGMHWVRQAPGKGLEWVAYISSGSYTIYSADSVKGRFTISRDNAKNSLYLQMNSLRAEDTAVYYCARRAPNSFYEYYFDYWGQGTTVTVSS
VL 1: QIVLTQSPATLSLSPGERATLSCSASSKHTNLYWSRHMYWYQQKPGQAPRLLIYLTSNRATGIPARFSGSGSGTDFTLTISSLEPEDFAVYYCQQWSSNPFTFGQGTKLEIK
VH 2: EVQLVETGGGLIQPGRSLRLSCAASGFTFSSYAMHWVRQAPGKGLEWVAVISYAGEVKYYADSVKGRFTISRDNSKNTLYLQMNSLRAEDTAVYYCARDPLPLHYYGMDVWGQGTTVTVSS
VL 2: QSALTQPRSASGNPGQRVTISCSGSSSNMGRRPVNWYQQIPGTAPKLLIYSQNQRPSGVPDRFSGSQSGTSASLTISGLQSEDEAEYFCAVWDDIGRVLQLGGGTQLAVL
notes: DuetMab format; also called parental VAR1; P-VAR1 w.t; DuetMab
As for B6, the Kd in test [14] was 32.1 nM; in test [15] it was 0.0099 nM; in [16], 2.3 nM; in test [12], 2.56 nM; in test [13], 11.2 nM. Moreover, the koff in test [14] came out at 0.0329 s⁻¹; in test [15], 4.64e-05 s⁻¹; in [16] it was 0.00378 s⁻¹. The association rate constant (kon) came to 1.03e+06 M⁻¹ s⁻¹ in test [14], 4.67e+06 M⁻¹ s⁻¹ in [15] and 1.66e+06 M⁻¹ s⁻¹ in test [16]. The “EC50 (read off the curve)” value in [11] was ~2 nM.

For orientation: EC50 means the concentration at which the effect is half-maximal. As a reminder, the EC50 (read off the curve) is the concentration giving half of the maximal effect. A lower EC50 (read off the curve) goes with a more potent agent. The Kd is a measure of binding affinity in units of concentration. The koff is a measure of how fast the partners let go of each other. A word on the kon: it is a measure of how fast the partners come together.
